From paper PMC7083832, “Structural analysis of TIFA: Insight into TIFA-dependent signal transduction in innate immunity” (Scientific Reports, 2020)
Values joined by “and” are separate entries in the source; they are usually repeats but may differ in a detail not shown here. Equal entries are not always repeated.

B1: mouse TRAF6-C containing a part of coiled-coil domain (amino acid residues from 326 to 516) (domain or fragment, UniProt P70196 326-516, looked up)
chain: AKMETQSMYVGELKRTIRTLEDKVAEMEAQQCNGIYIWKIGNFGMHLKSQEEERPVVIHSPGFYTGRPGYKLCMRLHLQLPTAQRCANYISLFVHTMQGEYDSHLPWPFQGTIRLTILDQSEALIRQNHEEVMDAKPELLAFQRPTIPRNPKGFGYVTFMHLEALRQGTFIKDDTLLVRCEVSTRFDMGGL
notes: TRAF6, mouse, residues 326-516: part of the coiled-coil domain and the C-terminal TRAF (TRAF-C) domain; also called TRAF-C domain of TRAF6; not shown: His tag, C-terminal, kept

Columns and labels:
[1] = target: B1; assay: SEC; TIFAs and TRAF6-C mixed at a molar ratio of 1:1 (monomer:monomer); Superdex 200; 20 mM Tris pH 8.0, 500 mM NaCl, 2 mM EDTA, 1 mM β-mercaptoethanol; settings: both partners purified
[2] = target: the molecule itself; assay: crystal structure; hanging-drop vapour diffusion, reservoir 0.1 M MES pH 6.4, 5% (v/v) MPD (native TIFA; T9E/C36S under a similar condition); data at 100 K
[3] = target: the molecule itself; assay: SEC; each protein alone; Superdex 200; 20 mM Tris pH 8.0, 500 mM NaCl, 2 mM EDTA, 1 mM β-mercaptoethanol
[4] = target: the molecule itself; assay: crystal structure; reservoir 0.1 M sodium citrate pH 5.3, 40% (v/v) PEG400 (T9D/C36S); data at 100 K

Row | Binder | binding result [1] | stoichiometry N [2] | binding result [3] | stoichiometry N [4] | stoichiometry N [3]
1 | full-length mouse TIFA (TRAF-interacting protein with a forkhead-associated (FHA) domain) (natural protein, UniProt Q793I8 1-184, looked up, TIFA, mouse, full length, 184 amino acids, GenBank BAB86903.1; A SeMet form (E. coli B834(DE3)) was used only for phasing; also called wildtype TIFA; native TIFA; not shown: His tag, C-terminal, kept) MSTFEDADTEETVTCLQMTIYHPGQQSGIFKSIRFCSKEKFPSIEVVKFGRNSNMCQYTFQDKQVSRIQFVLQPFKQFNSSVLSFEIKNMSKKTSLMVDNQELGYLNKMDLPYKCMLRFGEYQFLLQKEDGESVESFETQFIMSSRPLLQENNWPTQNPIPEDGMYSSYFTHRSSPSEMDENEL | binds | 2 | – | – | –
2 | mouse TIFA E39R/E45R/E138R mutant (natural protein, UniProt Q793I8 1-184, looked up, TIFA, mouse, full length, 184 amino acids, GenBank BAB86903.1, with E39R, E45R and E138R; source: E. coli BL21(DE3), pET-30b(+), purified by nearly the same procedure as for native TIFA) MSTFEDADTEETVTCLQMTIYHPGQQSGIFKSIRFCSKRKFPSIRVVKFGRNSNMCQYTFQDKQVSRIQFVLQPFKQFNSSVLSFEIKNMSKKTSLMVDNQELGYLNKMDLPYKCMLRFGEYQFLLQKEDGESVESFRTQFIMSSRPLLQENNWPTQNPIPEDGMYSSYFTHRSSPSEMDENEL | binds | – | binds | – | –
3 | mouse TIFA T9E/C36S mutant (natural protein, UniProt Q793I8 1-184, looked up, TIFA, mouse, full length, 184 amino acids, GenBank BAB86903.1, with T9E (phosphomimetic) and C36S; source: E. coli BL21(DE3), pET-30b(+), purified by nearly the same procedure as for native TIFA) MSTFEDADEEETVTCLQMTIYHPGQQSGIFKSIRFSSKEKFPSIEVVKFGRNSNMCQYTFQDKQVSRIQFVLQPFKQFNSSVLSFEIKNMSKKTSLMVDNQELGYLNKMDLPYKCMLRFGEYQFLLQKEDGESVESFETQFIMSSRPLLQENNWPTQNPIPEDGMYSSYFTHRSSPSEMDENEL | binds | 2 | – | – | –
4 | mouse TIFA E39R/E138R mutant (natural protein, UniProt Q793I8 1-184, looked up, TIFA, mouse, full length, 184 amino acids, GenBank BAB86903.1, with E39R and E138R; source: E. coli BL21(DE3), pET-30b(+), purified by nearly the same procedure as for native TIFA) MSTFEDADTEETVTCLQMTIYHPGQQSGIFKSIRFCSKRKFPSIEVVKFGRNSNMCQYTFQDKQVSRIQFVLQPFKQFNSSVLSFEIKNMSKKTSLMVDNQELGYLNKMDLPYKCMLRFGEYQFLLQKEDGESVESFRTQFIMSSRPLLQENNWPTQNPIPEDGMYSSYFTHRSSPSEMDENEL | binds | – | binds | – | –
5 | mouse TIFA T9D/C36S mutant (natural protein, UniProt Q793I8 1-184, looked up, TIFA, mouse, full length, 184 amino acids, GenBank BAB86903.1, with T9D (phosphomimetic) and C36S; Dimers assemble into a hexamer in the crystal; source: E. coli BL21(DE3), pET-30b(+), purified by nearly the same procedure as for native TIFA) MSTFEDADDEETVTCLQMTIYHPGQQSGIFKSIRFSSKEKFPSIEVVKFGRNSNMCQYTFQDKQVSRIQFVLQPFKQFNSSVLSFEIKNMSKKTSLMVDNQELGYLNKMDLPYKCMLRFGEYQFLLQKEDGESVESFETQFIMSSRPLLQENNWPTQNPIPEDGMYSSYFTHRSSPSEMDENEL | binds | – | – | 2 and 6 | –
6 | B1 | – | – | – | – | 3
